{
  "source": "patent US20060008875A1",
  "about": "(UNIVERSITAIR MEDISCH CENTRUM ROTTERDAM, published 2006)",
  "binders": {"B1": {"name": "HA-tagged version of hTFB5 (p8-HA) (other)", "chain": "MVNVLKGVLIECDPAMKQFLLYLDESNALGKKFIIQDIDDTHVFVIAELVNVLQERVGELMDQNAFSLTQK", "notes": "C-terminally HA-tagged TTDA cloned in pCDNA3 and expressed in TTD1BRSV (TTD-A) fibroblasts; tested in whole cell extracts; also called TTDA-HA; hTFB5HA; not shown: C-terminal HA tag"}},
  "molecular_target": "T1, replication/repair factor RPA1 (human, UniProt P27694 1-616)",
  "T1 construct": "Endogenous protein in extracts of human TTD-A fibroblasts",
  "T1 sequence (P27694 whole entry)": "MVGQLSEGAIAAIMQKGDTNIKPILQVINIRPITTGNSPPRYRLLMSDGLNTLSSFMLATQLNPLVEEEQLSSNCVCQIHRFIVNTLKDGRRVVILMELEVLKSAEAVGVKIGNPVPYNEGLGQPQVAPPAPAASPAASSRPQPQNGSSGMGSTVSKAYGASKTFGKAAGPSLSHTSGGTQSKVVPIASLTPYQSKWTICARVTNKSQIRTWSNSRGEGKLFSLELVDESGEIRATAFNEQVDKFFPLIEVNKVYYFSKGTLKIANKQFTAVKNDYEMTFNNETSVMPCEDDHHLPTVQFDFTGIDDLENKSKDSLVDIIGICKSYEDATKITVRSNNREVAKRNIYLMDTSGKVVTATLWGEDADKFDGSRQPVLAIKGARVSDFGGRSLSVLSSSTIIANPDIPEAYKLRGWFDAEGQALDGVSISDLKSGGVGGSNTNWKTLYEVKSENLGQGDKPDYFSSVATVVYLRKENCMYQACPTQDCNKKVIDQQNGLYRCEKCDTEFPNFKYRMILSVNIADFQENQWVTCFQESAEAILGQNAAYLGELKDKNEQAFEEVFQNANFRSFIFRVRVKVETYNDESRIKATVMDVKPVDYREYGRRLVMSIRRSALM",
  "assay": "anti-HA immunoprecipitation from extracts of TTD-A fibroblasts expressing p8-HA, immunoblot",
  "from_the_text": "We cloned the human TFB5 cDNA from primary fibroblasts by virtue of its homology with yeast TFB5 using conventional techniques known in the art. An HA-tagged version of hTFB5 (p8-HA) was constructed via conventional molecular cloning methods (Maniatis et al, supra) and expressed in TTD-A fibroblasts and subsequently used for immuno-precipitations with anti-HA (FIG. 1a). Both the XPB core TFIIH and the associated CAK component (CDK7) were co-precipitated with p8-HA, in contrast to replication/repair factor RPA1 (data not shown). Conversely, anti-p44 (another core-TFIIH component) co-precipitated p8-HA. We conclude that, analogous to yeast, this small polypeptide is associated with TFIIH in mammalian cells.\nImmunoprecipitation and immunoblot analysis. Whole cell extracts from MRC5SV, TTD1BRSV and TTD1BRSV+hTFB5HA were prepared by isolating cells from 6 petri dishes per cell line (13 cm). Collected cell-pellets were washed once in PBS prior to lysis by douncing (20 strokes using a 12.61 mm dounce homogenizer, Bellco Glass, INC., USA) in 2 ml of buffer A (50 mM Tris pH 7.9; 150 mM NaCl; 20% Glycerol; 0.1% NP40; 5 mM β-mercaptoethanol) supplemented with anti-proteases. […]",
  "data": [
    {"binder": "B1", "values": [
      {"measurement": "binding result", "value": "no binding"}
    ]}
  ]
}
